Measured values published in patent publication US20260035476A1.

Molecular target: CD68 protein (human) (UniProt P34810)
Assay: flow cytometry on lupus patient PBMC, B cells (FIG. 3B)

UniProt P34810, sequence (P34810 22-354): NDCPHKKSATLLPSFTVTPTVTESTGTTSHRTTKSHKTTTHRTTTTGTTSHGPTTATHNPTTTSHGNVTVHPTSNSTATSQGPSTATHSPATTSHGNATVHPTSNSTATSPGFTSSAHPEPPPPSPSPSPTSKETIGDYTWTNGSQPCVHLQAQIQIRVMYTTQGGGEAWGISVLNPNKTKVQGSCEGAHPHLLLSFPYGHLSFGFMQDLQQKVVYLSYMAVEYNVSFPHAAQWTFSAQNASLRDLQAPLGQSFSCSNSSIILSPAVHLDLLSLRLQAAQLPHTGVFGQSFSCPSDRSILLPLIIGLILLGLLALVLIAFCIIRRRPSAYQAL

percent of B cells co-stained for CD68 and ARID3a: 29%
Substance: Y1/82A anti-CD68 monoclonal antibody
